Source: patent US20250042956A1 (University of California, published 2025)

Tests used:
AT5G67580.1 TRB2 = target: T1, AT5G67580.1 TRB2 (Arabidopsis thaliana, UniProt Q9FJW5 1-299); experiment: IP-MS rep 1
T1 construct: Endogenous protein found by mass spectrometry
T1 sequence: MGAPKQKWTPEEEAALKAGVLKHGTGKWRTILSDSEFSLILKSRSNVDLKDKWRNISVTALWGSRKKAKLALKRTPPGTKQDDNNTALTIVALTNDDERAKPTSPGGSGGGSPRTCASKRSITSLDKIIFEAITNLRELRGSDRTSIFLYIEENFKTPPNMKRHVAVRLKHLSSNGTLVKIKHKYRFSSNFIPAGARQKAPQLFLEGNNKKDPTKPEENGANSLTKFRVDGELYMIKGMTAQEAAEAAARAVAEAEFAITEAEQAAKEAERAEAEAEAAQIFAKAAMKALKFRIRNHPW
How it was run: (§1)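 Peptide counts for co-purified proteins come from mass spectrometry of proteins pulled down from Arabidopsis floral buds with anti-FLAG magnetic beads. Ten grams of unopened buds from wild-type and FLAG-tagged transgenic lines were ground in liquid nitrogen and homogenised in 25 mL IP buffer. Lysates were held with 250 μL anti-FLAG M2 magnetic beads at 4° C for 2 hours, and bound proteins were eluted in TBS with 250 μg/mL 3×FLAG peptides.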

AT2G23380.1 CLF = target: T2, AT2G23380.1 CLF (Arabidopsis thaliana, UniProt P93831 1-902); experiment: IP-MS rep 1
T2 construct: Endogenous protein found by mass spectrometry; also called CURLY LEAF
T2 sequence (looked up): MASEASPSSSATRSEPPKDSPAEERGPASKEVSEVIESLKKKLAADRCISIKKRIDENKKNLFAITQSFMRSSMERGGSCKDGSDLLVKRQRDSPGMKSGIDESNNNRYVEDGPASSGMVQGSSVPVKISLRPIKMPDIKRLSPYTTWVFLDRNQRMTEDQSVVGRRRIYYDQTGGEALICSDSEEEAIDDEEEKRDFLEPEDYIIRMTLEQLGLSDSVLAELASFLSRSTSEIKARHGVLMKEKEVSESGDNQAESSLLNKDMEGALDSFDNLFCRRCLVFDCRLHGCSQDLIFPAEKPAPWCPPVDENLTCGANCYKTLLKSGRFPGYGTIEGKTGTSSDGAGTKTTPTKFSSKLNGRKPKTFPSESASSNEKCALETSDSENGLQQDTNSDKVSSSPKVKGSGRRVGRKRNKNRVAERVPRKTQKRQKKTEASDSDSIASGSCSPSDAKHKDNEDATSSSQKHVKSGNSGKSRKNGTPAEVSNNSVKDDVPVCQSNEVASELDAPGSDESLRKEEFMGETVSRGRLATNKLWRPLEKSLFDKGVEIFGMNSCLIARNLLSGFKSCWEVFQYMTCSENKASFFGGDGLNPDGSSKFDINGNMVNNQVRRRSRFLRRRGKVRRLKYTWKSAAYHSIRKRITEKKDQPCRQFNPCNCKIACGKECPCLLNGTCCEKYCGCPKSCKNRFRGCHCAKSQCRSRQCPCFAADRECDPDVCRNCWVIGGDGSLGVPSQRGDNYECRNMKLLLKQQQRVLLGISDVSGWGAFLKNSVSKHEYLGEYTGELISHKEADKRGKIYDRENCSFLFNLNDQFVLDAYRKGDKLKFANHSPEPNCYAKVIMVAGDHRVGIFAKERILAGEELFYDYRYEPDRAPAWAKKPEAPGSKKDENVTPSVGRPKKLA
How it was run: as §1

AT1G49950.3 TRB1 = target: T3, AT1G49950.3 TRB1 (Arabidopsis thaliana, UniProt Q8VWK4 1-300, limits assumed); experiment: IP-MS rep 1
T3 construct: Endogenous protein found by mass spectrometry
T3 sequence: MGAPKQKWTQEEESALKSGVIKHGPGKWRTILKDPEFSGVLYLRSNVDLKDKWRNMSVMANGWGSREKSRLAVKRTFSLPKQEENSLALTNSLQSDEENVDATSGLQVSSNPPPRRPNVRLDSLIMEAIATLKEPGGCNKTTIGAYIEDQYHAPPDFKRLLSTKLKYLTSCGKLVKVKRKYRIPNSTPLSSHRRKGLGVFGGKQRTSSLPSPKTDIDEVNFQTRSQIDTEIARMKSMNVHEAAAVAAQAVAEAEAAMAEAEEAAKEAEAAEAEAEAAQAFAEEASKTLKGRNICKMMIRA
How it was run: as §1

AT4G35510.1 TRBIP1 = target: T4, AT4G35510.1 TRBIP1 (Arabidopsis thaliana); experiment: IP-MS rep 2
T4 construct: Endogenous protein found by mass spectrometry
T4 chain: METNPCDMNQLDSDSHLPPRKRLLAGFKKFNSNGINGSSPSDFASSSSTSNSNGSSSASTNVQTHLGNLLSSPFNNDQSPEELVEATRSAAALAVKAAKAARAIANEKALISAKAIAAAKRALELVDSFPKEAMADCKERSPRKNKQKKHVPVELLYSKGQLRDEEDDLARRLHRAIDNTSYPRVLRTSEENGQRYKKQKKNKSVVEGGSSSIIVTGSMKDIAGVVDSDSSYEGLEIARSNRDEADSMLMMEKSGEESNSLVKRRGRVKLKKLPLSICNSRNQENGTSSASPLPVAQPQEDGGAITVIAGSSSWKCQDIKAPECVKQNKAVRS
How it was run: as §1

AT3G49850.1 TRB3 = target: T5, AT3G49850.1 TRB3 (Arabidopsis thaliana, UniProt Q9M2X3 1-295); experiment: IP-MS rep 2
T5 construct: Endogenous protein found by mass spectrometry
T5 sequence: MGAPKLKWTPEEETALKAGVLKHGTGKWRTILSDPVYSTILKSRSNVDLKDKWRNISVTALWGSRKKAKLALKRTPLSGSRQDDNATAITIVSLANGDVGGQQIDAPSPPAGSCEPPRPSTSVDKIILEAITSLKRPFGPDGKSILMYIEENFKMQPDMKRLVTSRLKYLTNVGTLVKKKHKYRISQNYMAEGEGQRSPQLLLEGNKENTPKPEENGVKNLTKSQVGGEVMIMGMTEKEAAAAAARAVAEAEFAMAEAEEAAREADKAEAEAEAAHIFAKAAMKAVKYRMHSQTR
How it was run: as §1

IP-MS count (AT5G67580.1 TRB2): 43
IP-MS count (AT2G23380.1 CLF): 0
IP-MS count (AT1G49950.3 TRB1): 26
IP-MS count (AT4G35510.1 TRBIP1): 0
IP-MS count (AT3G49850.1 TRB3): 6
B1: TRBIP2 (bait of the TRBIP2 IP-MS) (other, not shown: small tags and cut ends)
chain: MATNACLESDSLLPPRKRLLAGFKNQNSRISNESPSPPFASSSSSTTTSNGSSASAVVHTHHLDHLLNDQTRSPEELAQASKATAALAVKVAKAARATANEKAIIASKAVAAAKNALELFASFPAAETVSCKEPRLIRAINNSPRVLTDCSGHRNKKQKTLTSTMNDGNDVAGVVDSDDGTRVNGKLLLCDNTLKEKTEEESSSLGKRRGRVKLPLSMCAYKDQENGITLEENNLSVSKSEGYNGGVAQVIERPSWKCQDLKSPECVKQNKVVRS
notes: tag and its position not described; also called TRBIP2-1; TRBIP2-2
